No end group written: not given here.
Assays:
Assay in all cases: ELISA, biotinylated 12-mer peptide on streptavidin, 2 ug/mL FLAG-tagged VHH, anti-FLAG-HRP
[1] = biological target: T1, FX activation peptide 12-mer … (SEQ ID NO:727) (human)
T1 sequence (peptide, C-terminally conjugated to biotin): LLDFNQTQPERG

[2] = biological target: T2, FX activation peptide 12-mer PTENPFDLLDFN (SEQ ID NO:720) (human)
T2 peptide: PTENPFDLLDFN-biotin
Protocol: (§1) To determine whether the binding epitope of the anti-FX VHH polypeptide designated “cmpd #1” are located inside the activation peptide (AP) of human FX (SEQ ID NO:2), an ELISA assay was setup. 41 unique 12-mer peptide fragments spanning the 52 residues of the activation peptide with one amino acid spacing were immobilized in microtiter plate wells followed by incubation with the VHH polypeptide to be tested, and detection of bound ligand was performed by addition of a secondary HRP-labelled antibody.
(§2) The peptides were C-terminally conjugated to biotin and 50 μL of 1 μg/mL peptide solution was used for immobilization in discrete wells of the microtiter plate which was pre-coated with 1 μg/mL streptavidin. Each well was washed with washing buffer (10 mM Tris, 150 mM NaCl, 2.5 mM CaCl₂, 0.05% Tween 20, pH 8.60) followed by addition of 50 μL of 2 μg/mL FLAG-tagged anti-FX VHH polypeptide or IgG antibody to be tested. After 1 hour non-bound VHH polypeptide was washed off using washing buffer.
(§3) Bound anti-FX activation peptide ligand was detected by first binding a HRP-labelled secondary antibody (for FLAG-tagged VHH polypeptide: Anti-FLAG mAb M2-Peroxidase (HRP) (Sigma Aldrich, US) for 1 hour, and then adding 100 μL TMB-1 ELISA substrate (Kem-En-Tec Diagnostics, Denmark).

[3] = biological target: T3, FX activation peptide 12-mer NQTQPERGDNNL (SEQ ID NO:731) (human)
T3 peptide: NQTQPERGDNNL-biotin
Protocol: as §1, §2, §3

[4] = biological target: T4, FX activation peptide 12-mer TENPFDLLDFNQ (SEQ ID NO:721) (human)
T4 peptide: TENPFDLLDFNQ-biotin
Protocol: as §1, §2, §3

[5] = biological target: T5, FX activation peptide 12-mer VAQATSSSGEAP (SEQ ID NO:694) (human)
T5 peptide: VAQATSSSGEAP-biotin
Protocol: as §1, §2, §3

[6] = biological target: T6, FX activation peptide 12-mer LDFNQTQPERGD (SEQ ID NO:728) (human)
T6 peptide: LDFNQTQPERGD-biotin
Protocol: as §1, §2, §3

[7] = biological target: T7, FX activation peptide 12-mer DFNQTQPERGDN (SEQ ID NO:729) (human)
T7 peptide: DFNQTQPERGDN-biotin
Protocol: as §1, §2, §3

[8] = biological target: T8, FX activation peptide 12-mer SSSGEAPDSITW (SEQ ID NO:699) (human)
T8 peptide: SSSGEAPDSITW-biotin
Protocol: as §1, §2, §3

[9] = biological target: T9, FX activation peptide 12-mer FDLLDFNQTQPE (SEQ ID NO:725) (human)
T9 peptide: FDLLDFNQTQPE-biotin
Protocol: as §1, §2, §3

[10] = biological target: T10, FX activation peptide 12-mer PDSITWKPYDAA (SEQ ID NO:705) (human)
T10 peptide: PDSITWKPYDAA-biotin
Protocol: as §1, §2, §3

[11] = biological target: T11, FX activation peptide 12-mer SSGEAPDSITWK (SEQ ID NO:700) (human)
T11 peptide: SSGEAPDSITWK-biotin
Protocol: as §1, §2, §3

[12] = biological target: T12, FX activation peptide 12-mer TQPERGDNNLTR (SEQ ID NO:733) (human)
T12 peptide: TQPERGDNNLTR-biotin
Protocol: as §1, §2, §3

[13] = biological target: T13, FX activation peptide 12-mer PYDAADLDPTEN (SEQ ID NO:712) (human)
T13 peptide: PYDAADLDPTEN-biotin
Protocol: as §1, §2, §3

[14] = biological target: T14, FX activation peptide 12-mer TWKPYDAADLDP (SEQ ID NO:709) (human)
T14 peptide: TWKPYDAADLDP-biotin
Protocol: as §1, §2, §3

[15] = biological target: T15, FX activation peptide 12-mer FNQTQPERGDNN (SEQ ID NO:730) (human)
T15 peptide: FNQTQPERGDNN-biotin
Protocol: as §1, §2, §3

[16] = biological target: T16, FX activation peptide 12-mer YDAADLDPTENP (SEQ ID NO:713) (human)
T16 peptide: YDAADLDPTENP-biotin
Protocol: as §1, §2, §3

[17] = biological target: T17, FX activation peptide 12-mer EAPDSITWKPYD (SEQ ID NO:703) (human)
T17 peptide: EAPDSITWKPYD-biotin
Protocol: as §1, §2, §3

[18] = biological target: T18, FX activation peptide 12-mer AADLDPTENPFD (SEQ ID NO:715) (human)
T18 peptide: AADLDPTENPFD-biotin
Protocol: as §1, §2, §3

[19] = biological target: T19, FX activation peptide 12-mer APDSITWKPYDA (SEQ ID NO:704) (human)
T19 peptide: APDSITWKPYDA-biotin
Protocol: as §1, §2, §3

ELISA signal normalized relative to the background signal (fold of background) [1]: 1.88
ELISA signal normalized relative to the background signal [2]: 4.58 fold of background
ELISA signal normalized relative to the background signal [3]: 0.92 fold of background
ELISA signal normalized relative to the background signal [4]: 4.84 fold of background
ELISA signal normalized relative to the background signal [5]: 1.02 fold of background
ELISA signal normalized relative to the background signal [6]: 0.97 fold of background
ELISA signal normalized relative to the background signal [7]: 0.94 fold of background
ELISA signal normalized relative to the background signal [8]: 0.86 fold of background
ELISA signal normalized relative to the background signal [9]: 4.38 fold of background
ELISA signal normalized relative to the background signal [10]: 1.05 fold of background
ELISA signal normalized relative to the background signal [11]: 0.88 fold of background
ELISA signal normalized relative to the background signal [12]: 1.05 fold of background
ELISA signal normalized relative to the background signal [13]: 0.83 fold of background
ELISA signal normalized relative to the background signal [14]: 1.13 fold of background
ELISA signal normalized relative to the background signal [15]: 1 fold of background
ELISA signal normalized relative to the background signal [16]: 0.87 fold of background
ELISA signal normalized relative to the background signal [17]: 0.97 fold of background
ELISA signal normalized relative to the background signal [18]: 0.88 fold of background
ELISA signal normalized relative to the background signal [19]: 1.06 fold of background
B1: Cmpd #1 (monovalent anti-FX VHH polypeptide, VHH-1.1) (VHH)
VHH: EVQLVESGGGLVQPGGSLRLSCAASGSIGAFDAMGWYRQAPGKQRELVAGIMVSRGNTNYTDSVKGRFTISRDNAKNTVYLQMNSLKPEDTAVYYCKAVKRPGPGYLEVWGQGTLVTVSS
notes: no protractor; FLAG-tagged in the peptide ELISA
